The target in one series is EuCGD (DfgA-B complex) ([Eubacterium] cellulosolvens, UniProt I5AX49+I5AX50). Briefly: steady-state kinetics, HPLC of aglycone. The settings on record: 30 °C, 2 min, 2 μM enzyme; enzymatically prepared substrate.
Substrate in series [1]: O=C1[C@@H](O)[C@H](c2c(O)cc(O)c3c(=O)cc(-c4ccc(O)c(O)c4)oc23)O[C@H](CO)[C@H]1O
Briefly: purified protein. The settings on record: 30 °C, 30 min, 2 μM enzyme, enzymatically prepared substrate.

Substrate in series [2]: O=C1[C@@H](O)[C@H](c2c(O)cc3oc(-c4ccc(O)c(O)c4)cc(=O)c3c2O)O[C@H](CO)[C@H]1O
Briefly: purified protein. The settings on record: 30 °C, 2 μM enzyme, enzymatically prepared substrate.

Substrate in series [3]: O=C1[C@@H](O)[C@H](c2c(O)cc3oc(-c4ccc(O)cc4)cc(=O)c3c2O)O[C@H](CO)[C@H]1O
Briefly: purified protein. The following applies: 30 °C, 2 μM enzyme, enzymatically prepared substrate.

Substrate in series [4]: O=C1[C@@H](O)[C@H](c2c(O)cc(O)c3c(=O)cc(-c4ccc(O)c(O)c4)oc23)O[C@H](CO)[C@H]1O
Briefly: steady-state kinetics, HPLC of aglycone. The format is biochemical, human intestinal bacterium PUE. The settings on record: 30 °C, 90 min, 5 μM enzyme, enzymatically prepared substrate.

Substrate in series [5]: O=C1[C@@H](O)[C@H](c2c(O)ccc3c(=O)c(-c4ccc(O)cc4)coc23)O[C@H](CO)[C@H]1O
Kind of series: steady-state kinetics, HPLC of aglycone. It is filed as biochemical, human intestinal bacterium PUE. The settings on record: 30 °C, 2 min, 2 μM enzyme, enzymatically prepared substrate.

Substrate in series [6]: O=C1[C@@H](O)[C@H](c2c(O)cc3oc4cc(O)c(O)cc4c(=O)c3c2O)O[C@H](CO)[C@H]1O
Briefly: purified protein. The following applies: 30 °C, 30 min, 2 μM enzyme, enzymatically prepared substrate.

Substrate in series [7]: Cc1c(C(=O)O)c(O)cc2c1C(=O)c1c(O)c([C@@H]3O[C@H](CO)[C@@H](O)C(=O)[C@H]3O)c(O)c(O)c1C2=O
Kind of series: purified protein. The following applies: 30 °C, 30 min, 2 μM enzyme, enzymatically prepared substrate.

Substrate in series [8]: O=C1[C@@H](O)[C@H](c2c(O)cc3oc(-c4ccc(O)c(O)c4)cc(=O)c3c2O)O[C@H](CO)[C@H]1O
Briefly: steady-state kinetics, HPLC of aglycone. The format is biochemical, Microbacterium trichothecenolyticum. The following applies: 30 °C, 30 min, 2 μM enzyme, enzymatically prepared substrate.

Substrate in series [9]: O=C1[C@@H](O)[C@H](c2c(O)cc3oc(-c4ccc(O)cc4)cc(=O)c3c2O)O[C@H](CO)[C@H]1O
Kind of series: steady-state kinetics, HPLC of aglycone. It is filed as biochemical, Microbacterium trichothecenolyticum. The following applies: 30 °C, 30 min, 2 μM enzyme, enzymatically prepared substrate.

Substrate in series [10]: O=C1[C@@H](O)[C@H](c2c(O)cc3oc4cc(O)c(O)cc4c(=O)c3c2O)O[C@H](CO)[C@H]1O
Briefly: steady-state kinetics, HPLC of aglycone. It is filed as biochemical, Microbacterium trichothecenolyticum. The settings on record: 30 °C, 30 min, 2 μM enzyme, enzymatically prepared substrate.

Among the data in publication PMC8563793, “C-Glycoside metabolism in the gut and in nature: Identification, characterization, structural analyses and distribution of C-C bond-cleaving enzymes” (Nature Communications, 2021) are Km and kcat values, retold here.

With `O=C1[C@@H](O)[C@H](c2c(O)cc3oc4cc(O)c(O)cc4c(=O)c3c2O)O[C@H](CO)[C@H]1O` [compound 5, 3’-oxo-mangiferin], on EuCGD (DfgA-B complex), the Michaelis constant (Km) (usually the concentration of substrate that gives half-maximal velocity) was above 5 mM.

B1: AgCGD2 (Arthrobacter globiformis NBRC 12137) (protein)
chain 1: MSEGIAGSGIELGITLYSLTSEFAAGLYTPETLIKAVADEGLGPGVEFNIAQMLRTYPDVDDDFVKLWRDSMDRYGLTPSAVGTNLDMGRRKDRDMTPDEEYDFFAAQLRTANKLGFHRVVIRSAGKELLRRLLPLAEKYDQKLGYEIHAPQGPNDPKILQIREMYAELGSDRLGFTADFSSTMHSLSPTLFRTLTQMGLPEEHFAVMQDIWRKPLPMQERNQEFEDYLRANNFDPAQLGPFTRLAFNMHGLVPPEEWLDIMPQIFHVHAKFYDIDENGNEPAMDIPRIVRQFVKGGYRGYLSSEWEGHAFADLGESDPIDLVKKQHSLMRRAIEEAVDPTVSQPALVETAK
chain 2: MATHNSLFQDSDVRKHPEGIAVSVQLPWYRSLWLSAVDDVAATVNGVKIPRESLRFELQGQTYSIAELPEQWETLWFVADKPDVVIPLDRIPDAGEEIDVEVILTLRLLYMQIAPMRYVGNRVAVERKVVLA
For B1, in the series “purified protein [1]”, the catalytic constant (kcat) (as a rule, the maximal rate divided by the concentration of active sites) is 0.667 ± 0.083 s⁻¹.

B2: EuCGD (DfgA-B complex) ([Eubacterium] cellulosolvens 6) (protein)
chain 1: MYRYEKKGPKRGVALYSYSAEFGLTKTLEDCFEDLHDMGAHGIEILANTHIENYPYPTDEWVEKWWRLCDKYEIVPVEYGNWIDSHVLGDRDLTTEESVEMLKRDIRLAHRLGFTVMRTKMPVINDLLEPVENWKEIIKGALPLAEELGIKMCPEIHTPSNLKGKLVNDFVEFIKETGTKNFGLNIDFSVFRTSFAEGEWVDPNYTPNKPEDIIPLLPYVYCCHAKFIHMSDDFKETTIPYEEVVKTMEDNGYEGYLLSEYEGADKYDEGYEVGQTLRKHHILLKNLLGD
chain 2: MEKQVIQSVGFRNIKNGNGEITGFQFKVKLPYYRGVFLSQIRPGTLFVDGQKIEKDQITWTINGEEYTNQEMRGDFKTHWATTKPAVLKVKMPGGLAQGYHDLKYGFCFTSSYMPPIIQDGLDPDKESMVYMPEFGHHVNERRLLIV
Consider B2, for which, in the series “purified protein [2]” (2 min), the Michaelis constant (Km) is recorded as 11 mM and the kcat was 0.0045 s⁻¹. Besides, in “purified protein [3]” (2 min), the Km was found to be 3.6 mM and the kcat is 0.003 s⁻¹.

B3: PuCGD (DgpB-C complex) (human intestinal bacterium PUE) (protein)
chain 1: MSNVKLGVTLYSFSTEYCQGKMTLEDCIRTAKELGAAGFEIVATQMIPSYPYVSDKFLGELKSICQYYDMEPVCYGANCDRGLRGDRNLTGDEMVAMAVRDIKNAHKMGCKVVREQWLMGPENFAKLAPFAEHYGVKVGIEVHNPETPITQSTKDYIAAIDKTGSKYLGLIPDFGCFANKPNKMNWDNALADGADKKLLEMARDMKYDNVPYDEAVKRLTAAGAKKVELTTMRDMYTFLTFKKDVSAELQGLKDMIPYCIHMHGKYHYMYENLQEAAIPYDDIMKIVSESDYDGYIVSEYEEYNSGHSIEMLRRHLKMMHNFVD
chain 2: MGLALRLNFVDVVCDDSLKNFWANGKKIGYQFDVRLSYYRGHFLSTIDEIGVKVDGVDVPAENISLCLDGKEYGVAELHDLVNVFWPIIEPATIKVFQPGGLSEEEHDVDFTLYFRSPYMALSETEYQSIDSCGSKRLNVQN
For the molecule B3, the Michaelis-Menten constant (Km) in series [4] amounted to 0.79 mM. In addition, in series [5], the Km amounted to 12 mM and the kcat turned out to be 0.00683 s⁻¹.

B4: AgCGD1 (Arthrobacter globiformis NBRC 12137) (protein)
chain 1: MTSLGTPIQGVTLYSFTRAFHARQYDLDGLIRKVAAEGFGPGLELIGFSSLRGFPDGIDDAFVGQFRDLVAEVDLIPTSLAVNVDTGIRRDRLMNHDELVEYMSKQIEVAARLGFPIARVQISLTPDAMESLLPVAEKYGVTLALEVHADQHGAHERVLALRDRYEKLDSPLLGFTADWGATVTGFAPSLLEAYRRRGAAEDLLRQVVELWNGFYAEGPPNTQKVHGERFGAFIGLAARSGRPDLGIDFAINGTGLFGPAPLDTWLEIMPWVRHVHGKFFGIDENGEEPSVPVRDLVRQLVENGYSGAISSEYEGWHWNNWQDPFDIIRGEQAVQRSAAANAGSAMITDASEARRILNSHLAQPVRG
chain 2: MIADRIIEHGTLITRDGRAAVEVRIPWYRALPGSCIAGAALTVDGVAAPEDTLRWTMNNRTFSFEELVDETGEWWFPLDSAVLSGDLPVWDDQAEHEVRVDLKLCIPYIITDHGVLHIEEHDTKTMKVAQQ
As for B4, the values for the Michaelis constant (Km) in the series “purified protein [2]” (30 min), in “purified protein [3]” (30 min) and in the series “purified protein [6]” were 3.4 ± 0.3 mM, 3.5 ± 0.4 mM and 3.7 ± 0.5 mM, respectively. Also, the catalytic constant (kcat) in “purified protein [2]” (30 min) was found to be 0.0095 ± 0.00033 s⁻¹; in the series “purified protein [3]” (30 min) it was 0.0767 ± 0.0033 s⁻¹; in the series “purified protein [6]”, 0.00283 ± 0.00017 s⁻¹.

B5: MiCGD (CarB-C complex) (Microbacterium sp.) (protein)
chain 1: MTALALPRLGVTLYSFTPYYHAREYSFEDLIRIAGERDLGPGLEIVGYQSIKGFPKLPDGFVKDFRRRVDEAGLELSAMGANADAGIPHDRLLNEDELTEYMAHQLHTAKELGFPIVRVQHSVTPDLMERLLPLAEKLDLTMGMEIHSPHSVHHPKIQALVERYEKLGSPHLGFIPDWGASLTRLPPSALQTYAAADVPRELLDAYDRQWDVFHAEGVITTDAEQGAQFRRMRELNERFGGDDVSVRIGTNAVGLFGHQRPEDWSAIMPWVVHVHGKFYGIDENGEEPSVPHGLLLRQLVDAGYTGYISSEWEGWHWNTTDDPFEMVAWQHRLMRRIFGEIEAEAGVR
chain 2: MFRERIIVQDSLVADESGSAFRIRLPWYRALPLSTIEELSVTVDGTAFDPARLRIAVNDGEWALAEAQLRTDDVWFVLDDATVRLPGLVLDAGAHEVQATLSMRIPYLPVAGKPLSMAETDQKRMDVKELTA
Turning to B5, the Km in “purified protein [7]” came to 0.39 mM.

B6: MtCGD (Microbacterium trichothecenolyticum) (protein)
chain 1: MTALGTPIQGVTLYSFTRAFHGREYDLEGLIRKTAADGFGPGLEIIGFSSFRGFPAIDDAYAGWFRDLIDEVGLVTTSLAVNADIGIHRDRLLNQDELIEYMTLQIKAAAKLGFPIARVQISIEPDSMEALAPIAEAHGVTLALEVHADQYASHPRILALRDRYEKVGSPFLGFTMDWGATVSGFAPSLIEAYRRRGASEELLGQVVDLWNTYYEQGPPADQADHGQRFGSFIGLAARHGRPDLGIDFGINGTGLFGPARVDDWRTIAPWIKHVHGKFFGIDENGEEPSVPVRDLVKLLVENGYNGAISSEYEGWHWNYWQSPFDIISDEQAVQRSAAEAAGSRMITDLAEARTQLGAWLPNTEGAHA
chain 2: MIPDRIIEQGTLRTDGPRAAVEVRLPWYRALPGSCIAGAELTIDGKTAPAESLRWEMNGAEFTFDELRTNIDEWWFPTDSAVLSGDLDIEADAEHEVTVGLTLYIPYIIISDTETLHIDEKNTKTMKAVAA
Turning to B6, the results for the kcat in [8], in series [9] and in series [10] were 0.35 ± 0.033 s⁻¹, 0.533 ± 0.083 s⁻¹ and 0.01 ± 0.0012 s⁻¹, respectively. Besides, the Km worked out at 8.2 ± 1.8 mM in series [9] and 6.1 ± 1.4 mM in series [10].
